Measurements from patent US20160176932A1 (Janssen / Centocor, published 2016).

What was measured:
A2_F24 VI56IV (RSV A2) = A2_F24 VI56IV (RSV A2) (UniProt P03420); test: Octet endpoint assay, CR9501 on sensor, culture supernatant
B1_N67I, S215P = biological target: T1, B1_N67I, S215P (RSV B1, UniProt O36634 27-109; O36634 137-540); test: Quantitative Octet, CR9501 on sensor, culture supernatant
T1 construct: also called PreF N67I S215P, RSV B1, fibritin
T1 chain 1: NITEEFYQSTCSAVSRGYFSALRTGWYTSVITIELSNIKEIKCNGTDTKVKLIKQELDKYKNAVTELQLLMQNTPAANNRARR
T1 chain 2: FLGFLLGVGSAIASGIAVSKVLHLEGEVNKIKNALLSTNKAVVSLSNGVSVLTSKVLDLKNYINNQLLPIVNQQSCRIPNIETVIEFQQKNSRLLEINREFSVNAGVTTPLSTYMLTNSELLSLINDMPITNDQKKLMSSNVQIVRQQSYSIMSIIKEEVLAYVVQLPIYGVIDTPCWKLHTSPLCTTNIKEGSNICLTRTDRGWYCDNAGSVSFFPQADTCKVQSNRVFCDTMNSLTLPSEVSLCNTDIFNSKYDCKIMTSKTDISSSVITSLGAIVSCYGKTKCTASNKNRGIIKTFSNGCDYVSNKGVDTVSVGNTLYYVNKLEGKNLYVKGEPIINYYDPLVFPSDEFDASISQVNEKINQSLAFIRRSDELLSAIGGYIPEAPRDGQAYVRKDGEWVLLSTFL
Protocol: (§1) To measure concentration of the pre-fusion RSV F protein in cell culture supernatants, quantitative Octet-based method was used. […] Afterwards, the coated biosensors were blocked in mock cell culture supernatant. Quantitative experiment was performed as follows: temperature 30° C., shaking speed 1000 rpm, time of the assay 300 seconds. Concentration of the protein in the cell culture supernatant was calculated using standard curve. The standard curve was prepared for each coated antibody using the A2_F24 N67I+S215P (SEQ NO:21) protein, diluted in mock cell culture supernatant. The measurement was done on the day of supernatant harvest (day 1) and after storage of the supernatant at 4° C. for 5 days or longer. […] The data analysis was done using the FORTEBIO® Data Analysis 6.4 software (FORTEBIO®).

B1_N67I, S215P loop = biological target: T2, B1_N67I, S215P loop (RSV B1, UniProt O36634 26-540); test: as above
T2 construct: Whole entry named; it begins with the signal peptide 1-26; also called PreFL N67I S215P, RSV B1, fibritin, Loop; F24-N67I + S215P: RSV B1, linker stabilized, fibritin
T2 chain: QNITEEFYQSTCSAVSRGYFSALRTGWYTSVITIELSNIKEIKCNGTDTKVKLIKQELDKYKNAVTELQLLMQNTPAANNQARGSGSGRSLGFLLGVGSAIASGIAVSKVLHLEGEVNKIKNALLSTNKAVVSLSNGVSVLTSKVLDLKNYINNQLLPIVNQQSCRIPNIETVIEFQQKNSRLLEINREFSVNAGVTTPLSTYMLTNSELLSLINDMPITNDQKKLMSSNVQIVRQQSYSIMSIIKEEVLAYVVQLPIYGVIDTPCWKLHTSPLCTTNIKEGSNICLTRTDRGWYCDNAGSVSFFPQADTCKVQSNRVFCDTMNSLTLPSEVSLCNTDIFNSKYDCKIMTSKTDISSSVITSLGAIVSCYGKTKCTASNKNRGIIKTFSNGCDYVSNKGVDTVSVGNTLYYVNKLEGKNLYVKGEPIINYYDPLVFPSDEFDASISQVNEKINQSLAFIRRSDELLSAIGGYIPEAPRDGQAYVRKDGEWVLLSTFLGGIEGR
Protocol: as §1

## CR9501 (antibody)
A2_F24 VI56IV (RSV A2)
  % of CR9501 binding after 5 days at 4 C relative to day 1: 54%

B1: CR9501 (antibody, V domains shown)
VH: QVQLVQSGPGLVKPSQTLALTCNVSGASINSDNYYWTWIRQRPGGGLEWIGHISYTGNTYYTPSLKSRLSMSLETSQSQFSLRLTSVTAADSAVYFCAACGAYVLISNCGWFDSWGQGTQVTVSS
VL: EIVMTQSPSSLSASIGDRVTITCQASQDISTYLNWYQQKPGQAPRLLIYGASNLETGVPSRFTGSGYGTDFSVTISSLQPEDIATYYCQQYQYLPYTFAPGTKVEIK
notes: Monoclonal antibody with the variable regions of 58C5; Biotinylated and immobilised on streptavidin sensors in the Octet assays; also called pre-fusion-specific Mab CR9501
B1_N67I, S215P
  % protein concentration (CR9501) after 5 days at 4 C relative to day of harvest: 90.9%
B1_N67I, S215P loop
  % protein concentration (CR9501) after 5 days at 4 C relative to day of harvest: 108%
